Stoichiometry N (per p97 hexamer), apparent time constant of ubiquitin insertion (τinitiation) and Eos-unfolding activity of p97-UN data for 3 molecules are collected here from article PMC13356908.

Test [1] deals with LD655-labeled p97 D592AzF (human) (UniProt P55072). Briefly: cryo-EM structure; datasets 1 and 2: 12.5 uM ^LD655p97^D592AzF, 10 uM UN, 10 uM Faf1 FH-UBX, 20 uM Ub-^Cy3Ub-Ubn, GF buffer with 5 mM ATP, 0.06% CHAPS, 0.04% octyl-β-D-glucopyranoside, frozen at once after mixing; PI state, I state, Npl4 local map, IC1 and IC2.
Test [2] shares this target. Briefly: FRET or BRET; stopped-flow mixing, 37°C, with ATP; 1 uM ^LD655p97/UN/Faf1 and 0.1 uM Ub-^Cy3Ub-Ubn chains; excitation 480 nm; apparent time constant. Background: BRET reads energy transfer from a luciferase to a nearby fluorophore.
A further test deals with T1, Ufd1 (human) (human).
T1 sequence (Q92890 1-307, looked up): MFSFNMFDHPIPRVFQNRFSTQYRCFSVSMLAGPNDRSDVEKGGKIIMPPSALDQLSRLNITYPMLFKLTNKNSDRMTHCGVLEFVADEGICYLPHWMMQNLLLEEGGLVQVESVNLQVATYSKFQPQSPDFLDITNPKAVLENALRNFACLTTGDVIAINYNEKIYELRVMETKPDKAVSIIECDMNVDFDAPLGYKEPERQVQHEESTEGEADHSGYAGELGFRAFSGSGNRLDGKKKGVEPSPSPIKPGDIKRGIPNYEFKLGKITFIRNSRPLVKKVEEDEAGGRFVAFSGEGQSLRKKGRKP

On to “Faf1 FH-UBX fragment (from UniProt Q9UNN5 481-650) (domain or fragment)”, for which, in test [1], the stoichiometry N (per p97 hexamer) amounted to 2. “unanchored poly-ubiquitin chains with Cy3 on the second ubiquitin (Ub-^Cy3Ub-Ubn) (from UniProt P0CG48 1-76; P0CG48 1-76; P0CG48 1-76)”: the apparent time constant of ubiquitin insertion (τinitiation) in test [2] was 5.1 s.

B1: Faf2 Δ1-271 (domain or fragment)
chain: YLVSERLEREERNQTQVLRQQQDEAYLASLRADQEKERKKREERERKRRKEEEVQQQKLAEERRRQNLQEEKERKLECLPPEPSPDDPESVKIIFKLPNDSRVERRFHFSQSLTVIHDFLFSLKESPEKFQIEANFPRRVLPCIPSEEWPNPPTLQEAGLSHTEVLFVQDLTDE
In the case of B1, the Eos-unfolding activity of p97-UN with Ufd1 (human) (human) came out at 5 fold.
